Reference: US20190100597A1

Molecular target: human CD20 on CD20-expressing cell lines (human) (UniProt P11836)
Assay: cell-based or functional assay

Chain of rituximab-derived anti-human CD20 IgM+J (antibody) (heavy): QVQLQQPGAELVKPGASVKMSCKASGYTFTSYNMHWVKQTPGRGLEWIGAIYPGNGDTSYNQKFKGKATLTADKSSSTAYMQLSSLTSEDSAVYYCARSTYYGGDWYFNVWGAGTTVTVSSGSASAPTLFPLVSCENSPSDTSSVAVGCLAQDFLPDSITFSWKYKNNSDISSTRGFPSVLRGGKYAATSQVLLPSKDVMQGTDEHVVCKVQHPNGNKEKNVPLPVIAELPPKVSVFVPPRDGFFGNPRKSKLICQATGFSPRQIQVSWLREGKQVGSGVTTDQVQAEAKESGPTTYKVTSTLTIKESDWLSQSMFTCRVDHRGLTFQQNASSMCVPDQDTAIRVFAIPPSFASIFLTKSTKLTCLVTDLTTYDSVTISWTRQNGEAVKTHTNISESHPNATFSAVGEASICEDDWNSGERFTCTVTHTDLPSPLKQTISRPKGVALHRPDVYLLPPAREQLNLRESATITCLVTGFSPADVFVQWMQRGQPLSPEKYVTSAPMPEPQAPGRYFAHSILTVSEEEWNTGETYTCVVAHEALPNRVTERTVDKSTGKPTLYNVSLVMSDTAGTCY
Chain of rituximab-derived anti-human CD20 IgM+J (antibody) (light): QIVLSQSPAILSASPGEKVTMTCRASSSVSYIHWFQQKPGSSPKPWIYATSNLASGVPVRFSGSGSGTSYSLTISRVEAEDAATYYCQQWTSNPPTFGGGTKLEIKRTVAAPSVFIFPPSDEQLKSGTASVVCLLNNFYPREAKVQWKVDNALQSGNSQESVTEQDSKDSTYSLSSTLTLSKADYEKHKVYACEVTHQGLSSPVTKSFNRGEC
Chain of rituximab-derived anti-human CD20 IgM+J (antibody) (chain): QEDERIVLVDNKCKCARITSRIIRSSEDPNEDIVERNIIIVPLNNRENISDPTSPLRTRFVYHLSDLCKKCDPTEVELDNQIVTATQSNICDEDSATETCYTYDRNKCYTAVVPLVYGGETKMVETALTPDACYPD
Chain of human CD20 on CD20-expressing cell lines (human) (P11836 whole entry): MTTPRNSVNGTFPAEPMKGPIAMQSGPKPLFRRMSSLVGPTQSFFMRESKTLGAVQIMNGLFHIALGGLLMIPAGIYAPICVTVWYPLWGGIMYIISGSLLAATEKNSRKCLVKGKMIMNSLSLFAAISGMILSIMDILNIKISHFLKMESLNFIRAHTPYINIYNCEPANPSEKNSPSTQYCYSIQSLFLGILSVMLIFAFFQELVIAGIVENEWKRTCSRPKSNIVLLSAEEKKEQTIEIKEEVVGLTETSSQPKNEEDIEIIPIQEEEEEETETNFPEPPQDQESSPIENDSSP

- CDC (IC50) on Raji cells: 2 µg/mL
- CDC EC50 on DOHH-2 cells: 0.09 nM
- CDC EC50 on Z-138 cells: 0.41 nM
Substance: rituximab-derived anti-human CD20 IgM+J (antibody)
